Results from the MegaScale stability set (Tsuboyama et al. 2023).

B1: EEHEE_rd4_0469 (parent)
chain: ITIHVNGVTYHFDNPEEAEKFAQKMAKTYQLKMEIHNGEFHME

Variants of: B1
Assay: folding stability dG (cDNA display proteolysis); higher = more stable
Conditions: PBS, room temperature

Row | Variant | folding stability dG [kcal/mol]
1 | ITIHVNGVTYHNDNPEEAEKFAQKMAKTYQLKMEIHNGEFHME [F12N] | -0.578
2 | ITIHVNGVTYHSDNPEEAEKFAQKMAKTYQLKMEIHNGEFHME [F12S] | -0.408
3 | ITIHVNGVTYHHDNPEEAEKFAQKMAKTYQLKMEIHNGEFHME [F12H] | -0.29
4 | ITIHVNGVTYHIDNPEEAEKFAQKMAKTYQLKMEIHNGEFHME [F12I] | 0.352
5 | ITIHVNGVTYHWDNPEEAEKFAQKMAKTYQLKMEIHNGEFHME [F12W] | 0.481
6 | ITIHVNGVTYHGDNPEEAEKFAQKMAKTYQLKMEIHNGEFHME [F12G] | -0.935
7 | ITIHVNGVTFHFDNPEEAEKFAQKMAKTYQLKMEIHNGEFHME [Y10F] | 1.19
8 | ITIHVNGVTKHFDNPEEAEKFAQKMAKTYQLKMEIHNGEFHME [Y10K] | 0.307
9 | ITIHVNGVTWHFDNPEEAEKFAQKMAKTYQLKMEIHNGEFHME [Y10W] | 1.07
10 | ITIHVNGVTSHFDNPEEAEKFAQKMAKTYQLKMEIHNGEFHME [Y10S] | -0.597
11 | ITIHVNGVTRHFDNPEEAEKFAQKMAKTYQLKMEIHNGEFHME [Y10R] | 0.338
12 | ITIHVNGVTNHFDNPEEAEKFAQKMAKTYQLKMEIHNGEFHME [Y10N] | -0.261
13 | ITIHVNGVTMHFDNPEEAEKFAQKMAKTYQLKMEIHNGEFHME [Y10M] | 0.573
14 | ITIHVNGVTVHFDNPEEAEKFAQKMAKTYQLKMEIHNGEFHME [Y10V] | 0.557
15 | ITIHVNGVTCHFDNPEEAEKFAQKMAKTYQLKMEIHNGEFHME [Y10C] | 1.52
16 | ITIHVNGVTHHFDNPEEAEKFAQKMAKTYQLKMEIHNGEFHME [Y10H] | 0.792
17 | ITIHVNGVTLHFDNPEEAEKFAQKMAKTYQLKMEIHNGEFHME [Y10L] | 0.756
18 | ITIHVNGVTAHFDNPEEAEKFAQKMAKTYQLKMEIHNGEFHME [Y10A] | 0.111
19 | ITIHVNGVTQHFDNPEEAEKFAQKMAKTYQLKMEIHNGEFHME [Y10Q] | -0.14
20 | ITIHVNGVTEHFDNPEEAEKFAQKMAKTYQLKMEIHNGEFHME [Y10E] | -0.243

Row | Variant | folding stability dG [kcal/mol]
21 | ITIHVNGVTTHFDNPEEAEKFAQKMAKTYQLKMEIHNGEFHME [Y10T] | 0.067
22 | ITIHVNGVTIHFDNPEEAEKFAQKMAKTYQLKMEIHNGEFHME [Y10I] | 0.806
23 | ITIHVNGVRYHFDNPEEAEKFAQKMAKTYQLKMEIHNGEFHME [T9R] | 1.4
24 | ITIHVNGVLYHFDNPEEAEKFAQKMAKTYQLKMEIHNGEFHME [T9L] | 1.15
25 | ITIHVNGVVYHFDNPEEAEKFAQKMAKTYQLKMEIHNGEFHME [T9V] | 1.25
26 | ITIHVNGVIYHFDNPEEAEKFAQKMAKTYQLKMEIHNGEFHME [T9I] | 1.19
27 | ITIHVNGVNYHFDNPEEAEKFAQKMAKTYQLKMEIHNGEFHME [T9N] | 0.826
28 | ITIHVNGVCYHFDNPEEAEKFAQKMAKTYQLKMEIHNGEFHME [T9C] | 1.86
29 | ITIHVNGVMYHFDNPEEAEKFAQKMAKTYQLKMEIHNGEFHME [T9M] | 1.21
30 | ITIHVNGVKYHFDNPEEAEKFAQKMAKTYQLKMEIHNGEFHME [T9K] | 1.51
31 | ITIHVNGVHYHFDNPEEAEKFAQKMAKTYQLKMEIHNGEFHME [T9H] | 1.11
32 | ITIHVNGVSYHFDNPEEAEKFAQKMAKTYQLKMEIHNGEFHME [T9S] | 1.17
33 | ITIHVNGVAYHFDNPEEAEKFAQKMAKTYQLKMEIHNGEFHME [T9A] | 1.39
34 | ITIHVNGVEYHFDNPEEAEKFAQKMAKTYQLKMEIHNGEFHME [T9E] | 0.827
35 | ITIHVNGVDYHFDNPEEAEKFAQKMAKTYQLKMEIHNGEFHME [T9D] | 0.639
36 | ITIHVNGVPYHFDNPEEAEKFAQKMAKTYQLKMEIHNGEFHME [T9P] | 1.51
37 | ITIHVNGVYYHFDNPEEAEKFAQKMAKTYQLKMEIHNGEFHME [T9Y] | 0.832
38 | ITIHVNGVWYHFDNPEEAEKFAQKMAKTYQLKMEIHNGEFHME [T9W] | 0.84
39 | ITIHVNGVGYHFDNPEEAEKFAQKMAKTYQLKMEIHNGEFHME [T9G] | 1.11
40 | ITIHVNGVFYHFDNPEEAEKFAQKMAKTYQLKMEIHNGEFHME [T9F] | 0.925

Row | Variant | folding stability dG [kcal/mol]
41 | ITIHVNGVQYHFDNPEEAEKFAQKMAKTYQLKMEIHNGEFHME [T9Q] | 1.27
42 | ITIHVNGVTYLFDNPEEAEKFAQKMAKTYQLKMEIHNGEFHME [H11L] | 1.02
43 | ITIHVNGVTYTFDNPEEAEKFAQKMAKTYQLKMEIHNGEFHME [H11T] | 1.07
44 | ITIHVNGVTYRFDNPEEAEKFAQKMAKTYQLKMEIHNGEFHME [H11R] | 1.13
45 | ITIHVNGVTYIFDNPEEAEKFAQKMAKTYQLKMEIHNGEFHME [H11I] | 1.04
46 | ITIHVNGVTYNFDNPEEAEKFAQKMAKTYQLKMEIHNGEFHME [H11N] | 0.977
47 | ITIHVNGVTYAFDNPEEAEKFAQKMAKTYQLKMEIHNGEFHME [H11A] | 1.02
48 | ITIHVNGVTYFFDNPEEAEKFAQKMAKTYQLKMEIHNGEFHME [H11F] | 1.17
49 | ITIHVNGVTYWFDNPEEAEKFAQKMAKTYQLKMEIHNGEFHME [H11W] | 1.24
50 | ITIHVNGVTYDFDNPEEAEKFAQKMAKTYQLKMEIHNGEFHME [H11D] | 0.692
51 | ITIHVNGVTYEFDNPEEAEKFAQKMAKTYQLKMEIHNGEFHME [H11E] | 0.843
52 | ITIHVNGVTYGFDNPEEAEKFAQKMAKTYQLKMEIHNGEFHME [H11G] | 0.636
53 | ITIHVNGVTYPFDNPEEAEKFAQKMAKTYQLKMEIHNGEFHME [H11P] | 0.279
54 | ITIHVNGVTYYFDNPEEAEKFAQKMAKTYQLKMEIHNGEFHME [H11Y] | 1.18
55 | ITIHVNGVTYKFDNPEEAEKFAQKMAKTYQLKMEIHNGEFHME [H11K] | 1.12
56 | ITIHVNGVTYVFDNPEEAEKFAQKMAKTYQLKMEIHNGEFHME [H11V] | 1.07
57 | ITIHVNGVTYMFDNPEEAEKFAQKMAKTYQLKMEIHNGEFHME [H11M] | 1.03
58 | ITIHVNGVTYSFDNPEEAEKFAQKMAKTYQLKMEIHNGEFHME [H11S] | 1.05
59 | ITIHVNGVTYQFDNPEEAEKFAQKMAKTYQLKMEIHNGEFHME [H11Q] | 1.01
